Experimental findings from article PMC13431160 are described below.

The assay concerns the target IRE1, ER stress sensor RNase, endogenous in HCT116 cells (human (endogenous in HCT116)) (UniProt O75460). Nature of the assay: co-IP; endogenous IRE1 immunoprecipitated from HCT116 WT lysate (anti-IRE1 clone B-12 cross-linked to protein G Dynabeads, 3 h at 4°C; 25 mM HEPES pH 7.3, 150 mM NaCl, 0.5% NP-40); cells treated with DMSO or TM 5 µg/mL 4 h; with or without RNase I and RNase T1 in the second wash; Western blot of IGF2BP3. For orientation: A western blot detects proteins with antibodies after separation by electrophoresis.
UniProt O75460, sequence (O75460 19-977): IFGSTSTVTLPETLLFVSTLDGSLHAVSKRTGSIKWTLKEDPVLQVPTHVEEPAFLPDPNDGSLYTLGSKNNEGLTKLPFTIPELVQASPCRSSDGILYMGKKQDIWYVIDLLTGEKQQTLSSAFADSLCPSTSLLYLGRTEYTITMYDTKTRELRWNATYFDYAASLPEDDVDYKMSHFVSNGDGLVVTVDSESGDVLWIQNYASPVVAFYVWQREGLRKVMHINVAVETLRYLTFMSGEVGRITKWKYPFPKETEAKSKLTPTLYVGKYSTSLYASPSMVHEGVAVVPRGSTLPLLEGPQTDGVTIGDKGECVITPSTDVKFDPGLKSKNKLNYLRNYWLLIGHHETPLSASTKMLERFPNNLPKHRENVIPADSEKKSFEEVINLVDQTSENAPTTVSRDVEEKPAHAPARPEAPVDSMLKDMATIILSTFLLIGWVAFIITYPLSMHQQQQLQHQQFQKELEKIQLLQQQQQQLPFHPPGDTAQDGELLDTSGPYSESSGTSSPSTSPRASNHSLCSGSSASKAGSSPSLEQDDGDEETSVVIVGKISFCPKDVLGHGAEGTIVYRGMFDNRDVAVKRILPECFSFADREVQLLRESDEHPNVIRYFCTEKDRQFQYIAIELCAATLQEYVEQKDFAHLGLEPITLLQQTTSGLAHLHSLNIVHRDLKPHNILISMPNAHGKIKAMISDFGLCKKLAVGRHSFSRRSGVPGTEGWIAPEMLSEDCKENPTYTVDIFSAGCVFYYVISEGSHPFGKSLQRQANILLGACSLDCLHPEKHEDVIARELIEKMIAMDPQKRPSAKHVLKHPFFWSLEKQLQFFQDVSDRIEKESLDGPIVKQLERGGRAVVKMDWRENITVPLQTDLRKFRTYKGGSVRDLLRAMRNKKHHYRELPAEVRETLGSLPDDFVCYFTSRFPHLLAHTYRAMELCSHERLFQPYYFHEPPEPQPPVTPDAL

The substance “IGF2BP3 (insulin-like growth factor 2 mRNA-binding protein 3), endogenous in HCT116 cells (from UniProt O00425 1-579) (natural protein)” displayed a fold change of the interaction after 4 h of ER stress against unstressed controls of 1.6 fold.
